{"source": "paper PMC6051491", "about": "“Dynamic structure mediates halophilic adaptation of a DNA polymerase from the deep-sea brines of the Red Sea”", "binders": {"B1": {"name": "primer/template (mixed)", "DNA 1": "GAGGTGGCGTCGGGTGGACGGGTGGATTGAAATTTAGGCTGGCAC", "DNA 2": "GTGCCAGCCTAAATTTCAATCC"}, "B2": {"name": "dsDNA (dsDNA)", "DNA 1": "B1 DNA 1", "DNA 2": "GTGCCAGCCTAAATTTCAATCCACCCGTCCACCCGACGCCACCTC"}}, "test_in_all_cases": "SPR; 100 mM NaCl; SPR (Biacore T100, SA chip, steady state): 20 mM Tris-HCl pH 8.8, 10 mM (NH4)2SO4, 0.1% Triton X-100, 100 or 300 mM NaCl; temperature not stated", "key": {"KODBR3exo Pol": {"target": "T1, KODBR3exo Pol (Thermococcus kodakarensis / BR3 chimera, UniProt P77933 1-130+A0A133VA65:160-367+329-406+767-851+1389-1671, internal_change)", "T1 sequence": "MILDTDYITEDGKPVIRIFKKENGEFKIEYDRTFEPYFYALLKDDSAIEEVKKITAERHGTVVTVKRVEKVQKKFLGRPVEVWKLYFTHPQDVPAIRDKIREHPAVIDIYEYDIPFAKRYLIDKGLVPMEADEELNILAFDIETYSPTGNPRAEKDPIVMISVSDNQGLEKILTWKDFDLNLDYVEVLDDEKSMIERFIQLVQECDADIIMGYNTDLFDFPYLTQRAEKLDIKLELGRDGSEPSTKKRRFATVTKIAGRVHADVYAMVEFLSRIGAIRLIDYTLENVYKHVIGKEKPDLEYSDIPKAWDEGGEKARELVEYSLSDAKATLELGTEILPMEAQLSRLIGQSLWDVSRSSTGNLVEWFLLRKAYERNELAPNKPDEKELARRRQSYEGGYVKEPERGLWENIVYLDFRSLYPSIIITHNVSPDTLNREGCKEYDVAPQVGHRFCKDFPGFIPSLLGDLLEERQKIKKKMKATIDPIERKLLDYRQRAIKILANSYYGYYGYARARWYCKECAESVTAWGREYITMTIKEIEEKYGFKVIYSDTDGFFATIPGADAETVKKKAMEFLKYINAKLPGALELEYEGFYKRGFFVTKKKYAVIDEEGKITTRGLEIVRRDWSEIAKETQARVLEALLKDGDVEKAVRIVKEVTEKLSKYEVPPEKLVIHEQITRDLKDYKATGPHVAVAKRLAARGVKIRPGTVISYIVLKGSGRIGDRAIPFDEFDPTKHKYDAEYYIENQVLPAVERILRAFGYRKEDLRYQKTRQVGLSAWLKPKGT", "settings": "protein: recombinant; label: 3' biotin on template (immobilized); primer pairs with template 3' end; 5' overhang 23 nt of template"}, "KODBR3thumb Pol": {"target": "T2, KODBR3thumb Pol (Thermococcus kodakarensis / BR3 chimera, UniProt P77933 1-406+767-851+1389-1479+A0A133VA65:621-805, internal_change)", "T2 sequence": "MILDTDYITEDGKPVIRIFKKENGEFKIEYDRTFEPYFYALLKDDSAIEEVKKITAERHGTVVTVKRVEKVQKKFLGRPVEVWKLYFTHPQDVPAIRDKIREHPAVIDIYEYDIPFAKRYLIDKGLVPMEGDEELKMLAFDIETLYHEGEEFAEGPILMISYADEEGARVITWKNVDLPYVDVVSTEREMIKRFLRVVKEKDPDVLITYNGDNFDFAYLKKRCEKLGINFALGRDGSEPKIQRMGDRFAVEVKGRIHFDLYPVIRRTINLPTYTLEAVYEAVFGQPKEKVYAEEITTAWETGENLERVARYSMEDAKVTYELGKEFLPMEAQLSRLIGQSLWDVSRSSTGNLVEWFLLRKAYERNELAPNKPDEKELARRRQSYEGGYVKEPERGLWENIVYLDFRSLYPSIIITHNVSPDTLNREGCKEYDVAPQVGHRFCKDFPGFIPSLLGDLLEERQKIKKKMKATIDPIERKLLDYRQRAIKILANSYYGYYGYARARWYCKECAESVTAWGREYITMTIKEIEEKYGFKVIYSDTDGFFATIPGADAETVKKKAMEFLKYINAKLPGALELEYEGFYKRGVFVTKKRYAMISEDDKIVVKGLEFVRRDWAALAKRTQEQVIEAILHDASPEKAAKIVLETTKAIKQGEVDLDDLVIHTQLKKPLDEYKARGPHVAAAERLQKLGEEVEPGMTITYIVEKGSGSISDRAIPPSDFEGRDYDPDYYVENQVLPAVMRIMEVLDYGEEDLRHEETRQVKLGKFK", "settings": "protein: recombinant; label: 3' biotin on template (immobilized); primer pairs with template 3' end; 5' overhang 23 nt of template"}, "KOD Pol WT": {"target": "T3, KOD Pol WT (Thermococcus kodakarensis, UniProt P77933 1-406+767-851+1389-1671, internal_change)", "T3 sequence": "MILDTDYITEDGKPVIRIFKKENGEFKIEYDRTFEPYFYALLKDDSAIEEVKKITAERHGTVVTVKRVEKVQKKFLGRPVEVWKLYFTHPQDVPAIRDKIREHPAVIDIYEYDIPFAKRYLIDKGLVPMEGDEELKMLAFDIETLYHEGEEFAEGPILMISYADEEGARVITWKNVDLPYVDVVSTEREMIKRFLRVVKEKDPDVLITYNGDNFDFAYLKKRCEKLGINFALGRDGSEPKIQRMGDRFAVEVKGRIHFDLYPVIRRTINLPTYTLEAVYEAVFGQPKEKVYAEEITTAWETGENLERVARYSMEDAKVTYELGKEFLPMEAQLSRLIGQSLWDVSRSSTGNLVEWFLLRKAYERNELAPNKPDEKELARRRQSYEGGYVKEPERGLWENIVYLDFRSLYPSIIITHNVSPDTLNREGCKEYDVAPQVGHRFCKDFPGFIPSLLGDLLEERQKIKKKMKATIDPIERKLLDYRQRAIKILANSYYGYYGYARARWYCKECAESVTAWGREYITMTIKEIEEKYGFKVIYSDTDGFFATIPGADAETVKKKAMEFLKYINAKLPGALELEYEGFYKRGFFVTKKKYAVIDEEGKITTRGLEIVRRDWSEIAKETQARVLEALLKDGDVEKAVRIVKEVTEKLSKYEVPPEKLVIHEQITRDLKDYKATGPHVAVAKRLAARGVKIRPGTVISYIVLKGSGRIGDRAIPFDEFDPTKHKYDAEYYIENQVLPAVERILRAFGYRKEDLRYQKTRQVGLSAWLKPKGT", "settings": "protein: recombinant, tags: N-terminal His"}}, "data": [{"binder": "B1", "values": [{"measurement": "Kd", "setting": "KODBR3exo Pol", "value": 6.5, "unit": "nM"}, {"measurement": "Kd", "setting": "KODBR3thumb Pol", "value": 12.5, "unit": "nM"}, {"measurement": "Kd", "setting": "KOD Pol WT; label: 3' biotin on template (immobilized), primer pairs with template 3' end, 5' overhang 23 nt of template", "value": 3.5, "unit": "nM"}]}, {"binder": "B2", "values": [{"measurement": "Kd", "setting": "KOD Pol WT; label: 3' biotin on strand 1 (immobilized), blunt", "value": 239, "unit": "nM"}]}, {"binder": "TTTTTTTTTTTTTTTTTTTTTTTTTTTTTTTTTTTTTTTT (ssDNA)", "note": "[ssDNA]", "values": [{"measurement": "Kd", "setting": "KOD Pol WT; label: 5' biotin (immobilized)", "value": 32.8, "unit": "nM"}]}]}
